Assay [1] concerns the target T1, tau aggregates in HEK293 tau biosensor cells (4R repeat domain of tau (K18) with the P301S mutation fused to … (UniProt P10636-8 244-372)).
T1 construct: domain: 4R repeat domain of tau (K18); Aggregated, insoluble form inside cells; the aggregates are seeded with brain homogenate of tau transgenic mice and may hold other proteins and RNA; Number of chains in an aggregate not defined; also called cytoplasmic tau aggregates; nuclear tau aggregates; not shown: CFP or YFP fused to the repeat domain
As to the kind of experiment: Halo (JF646) imaging; intensity in aggregate over adjacent region, five aggregates.

In assay [2] the target is T1, tau aggregates in HEK293 tau biosensor …. Briefly: Halo (JF646) imaging in seeded HEK293 tau biosensor cells.
Assay [3] has the same target. As to the kind of experiment: Halo (JF646) imaging; intensity in aggregate over adjacent region, 5 aggregates.
Assay [4] has the same target. As to the kind of experiment: cell-based or functional assay.

The record followed here is patent publication US20250215059A1 (REGENTS OF THE UNIVERSITY OF COLORADO A BODY CORPORATE, published 2025).

T1 sequence (P10636 561-689 P618S): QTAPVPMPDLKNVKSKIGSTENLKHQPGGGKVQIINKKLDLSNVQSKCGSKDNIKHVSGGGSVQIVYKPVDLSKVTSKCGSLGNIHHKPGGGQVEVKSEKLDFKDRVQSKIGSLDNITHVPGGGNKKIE

B1: Halo alone (other)
chain: MAEIGTGFPFDPHYVEVLGERMHYVDVGPRDGTPVLFLHGNPTSSYVWRNIIPHVAPTHRCIAPDLIGMGKSDKPDLGYFFDDHVRFMDAFIEALGLEEVVLVIHDWGSALGFHWAKRNPERVKGIAFMEFIRPIPTWDEWPEFARETFQAFRTTDVGRKLIIDQNVFIEGTLPMGVVRPLTEVEMDHYREPFLNPVDREPLWRFPNELPIAGEPANIVALVEEYMDWLHQSPVPKLLFWGTPGVLIPPAEAARLAKSLPNCKAVDIGPGLNLLQEDNPDLIGSEIARWLSTLEISG
modifications: JF646 Halo ligand covalently bound
notes: Control without a targeting motif; also called Halo tag; Halo protein
For B1, the “mean enrichment in cytoplasmic tau aggregates” value (shortened to “mean enrichment”) in assay [1] turned out to be 1.08 ratio. In addition, in assay [2], the binding result is reported as “no binding”.

B2: Halo tagged 5 serine repeat (other)
chain: SSSSSMAEIGTGFPFDPHYVEVLGERMHYVDVGPRDGTPVLFLHGNPTSSYVWRNIIPHVAPTHRCIAPDLIGMGKSDKPDLGYFFDDHVRFMDAFIEALGLEEVVLVIHDWGSALGFHWAKRNPERVKGIAFMEFIRPIPTWDEWPEFARETFQAFRTTDVGRKLIIDQNVFIEGTLPMGVVRPLTEVEMDHYREPFLNPVDREPLWRFPNELPIAGEPANIVALVEEYMDWLHQSPVPKLLFWGTPGVLIPPAEAARLAKSLPNCKAVDIGPGLNLLQEDNPDLIGSEIARWLSTLEISG
modifications: JF646 Halo ligand covalently bound to the Halo tag
notes: also called 5-serines
B2: in assay [3], the “mean enrichment” value came out at 0.95 ratio.

B3: SRRM2 C-terminus-TNPO3-halo (other)
chain: MEGAKPTLQLVYQAVQALYHDPDPSGKERASFWLGELQRSVHAWEISDQLLQIRQDVESCYFAAQTMKMKIQTSFYELPTDSHASLRDSLLTHIQNLKDLSPVIVTQLALAIADLALQMPSWKGCVQTLVEKYSNDVTSLPFLLEILTVLPEEVHSRSLRIGANRRTEIIEDLAFYSSTVVSLLMTCVEKAGTDEKMLMKVFRCLGSWFNLGVLDSNFMANNKLLALLFEVLQQDKTSSNLHEAASDCVCSALYAIENVETNLPLAMQLFQGVLTLETAYHMAVAREDLDKVLNYCRIFTELCETFLEKIVCTPGQGLGDLRTLELLLICAGHPQYEVVEISFNFWYRLGEHLYKTNDEVIHGIFKAYIQRLLHALARHCQLEPDHEGVPEETDDFGEFRMRVSDLVKDLIFLIGSMECFAQLYSTLKEGNPPWEVTEAVLFIMAAIAKSVDPENNPTLVEVLEGVVRLPETVHTAVRYTSIELVGEMSEVVDRNPQFLDPVLGYLMKGLCEKPLASAAAKAIHNICSVCRDHMAQHFNGLLEIARSLDSFLLSPEAAVGLLKGTALVLARLPLDKITECLSELCSVQVMALKKLLSQEPSNGISSDPTVFLDRLAVIFRHTNPIVENGQTHPCQKVIQEIWPVLSETLNKHRADNRIVERCCRCLRFAVRCVGKGSAALLQPLVTQMVNVYHVHQHSCFLYLGSILVDEYGMEEGCRQGLLDMLQALCIPTFQLLEQQNGLQNHPDTVDDLFRLATRFIQRSPVTLLRSQVVIPILQWAIASTTLDHRDANCSVMRFLRDLIHTGVANDHEEDFELRKELIGQVMNQLGQQLVSQLLHTCCFCLPPYTLPDVAEVLWEIMQVDRPTFCRWLENSLKGLPKETTVGAVTVTHKQLTDFHKQVTSAEECKQVCWALRDFTRLFRGTELGSTSPVWWNSADIQSRCLIAQTTPVAGSQSLSSGAVATTTSSAGDHNGMLSVPAPGVPHSDVGEPPASTGAQQPSALAALQPAKERRSSSSSSSSSSSSSSSSSSSSSSSSSGSSSSDSEGSSLPVQPEVALKRVPSPTPAPKEAVREGRPPEPTPAKRKRRSSSSSSSSSSSSSSSSSSSSSSSSSSSSSSSSSSSSSSSSSSPSPAKPGPQALPKPASPKKPPPGERRSRSPRKPIDSLRDSRSLSYSPVERRRPSPQPSPRDQQSSSSERGSRRGQRGDSRSPSHKRRRETPSPRPMRHRSGGSGGSGGGSEIGTGFPFDPHYVEVLGERMHYVDVGPRDGTPVLFLHGNPTSSYVWRNIIPHVAPTHRCIAPDLIGMGKSDKPDLGYFFDDHVRFMDAFIEALGLEEVVLVIHDWGSALGFHWAKRNPERVKGIAFMEFIRPIPTWDEWPEFARETFQAFRTTDVGRKLIIDQNVFIEGTLPMGVVRPLTEVEMDHYREPFLNPVDREPLWRFPNELPIAGEPANIVALVEEYMDWLHQSPVPKLLFWGTPGVLIPPAEAARLAKSLPNCKAVDIGPGLNLLQEDNPDLIGSEIARWLSTLEISG
Consider B3, for which the “tau aggregation by flow cytometry (FRET+ cells and integrated FRET density, normalized to no insert Halo)” value in assay [4] was around 50 % decrease.

B4: Halo tagged 10 serine repeat (other)
chain: SSSSSSSSSSMAEIGTGFPFDPHYVEVLGERMHYVDVGPRDGTPVLFLHGNPTSSYVWRNIIPHVAPTHRCIAPDLIGMGKSDKPDLGYFFDDHVRFMDAFIEALGLEEVVLVIHDWGSALGFHWAKRNPERVKGIAFMEFIRPIPTWDEWPEFARETFQAFRTTDVGRKLIIDQNVFIEGTLPMGVVRPLTEVEMDHYREPFLNPVDREPLWRFPNELPIAGEPANIVALVEEYMDWLHQSPVPKLLFWGTPGVLIPPAEAARLAKSLPNCKAVDIGPGLNLLQEDNPDLIGSEIARWLSTLEISG
modifications: JF646 Halo ligand covalently bound to the Halo tag
notes: also called 10-serines
Turning to B4, the “mean enrichment” value in assay [3] was 1.05 ratio.

B5: Frag_0-Halo (SRRM2 a.a. 2651-2752) (other)
chain: PAKPGPQALPKPASPKKPPPGERRSRSPRKPIDSLRDSRSLSYSPVERRRPSPQPSPRDQQSSSSERGSRRGQRGDSRSPSHKRRRETPSPRPMRHRSSRSPMAEIGTGFPFDPHYVEVLGERMHYVDVGPRDGTPVLFLHGNPTSSYVWRNIIPHVAPTHRCIAPDLIGMGKSDKPDLGYFFDDHVRFMDAFIEALGLEEVVLVIHDWGSALGFHWAKRNPERVKGIAFMEFIRPIPTWDEWPEFARETFQAFRTTDVGRKLIIDQNVFIEGTLPMGVVRPLTEVEMDHYREPFLNPVDREPLWRFPNELPIAGEPANIVALVEEYMDWLHQSPVPKLLFWGTPGVLIPPAEAARLAKSLPNCKAVDIGPGLNLLQEDNPDLIGSEIARWLSTLEISG
modifications: JF646 Halo ligand covalently bound to the Halo tag
notes: PCR amplified from the SRRM2_FL-Halo cell line and expressed from a pcDNA plasmid with an added start codon
As for B5, the “mean enrichment” value in assay [1] was 1.1 ratio. For the same molecule, the binding result in assay [2] is listed as “no binding”.
